Laboratory results taken from patent publication US20200362047A1 (CRESCENDO BIOLOGICS, published 2020).

How the values were obtained:
[1] = target: T1, human OX40-Fc (R&D Systems cat no. 3388-OX) (human, UniProt P43489 29-216); assay: ELISA, coated OX40-Fc
T1 construct: Bought protein; not shown: Fc tag
T1 sequence (looked up): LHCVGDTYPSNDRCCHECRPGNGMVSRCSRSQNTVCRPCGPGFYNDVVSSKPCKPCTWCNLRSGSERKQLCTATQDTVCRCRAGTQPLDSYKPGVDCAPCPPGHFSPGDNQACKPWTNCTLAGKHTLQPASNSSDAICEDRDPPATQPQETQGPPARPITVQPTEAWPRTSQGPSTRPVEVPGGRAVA
Procedure: (§1) Specificity of binding for CD137 over the tumour necrosis factor receptor family members OX40 and GITR (Glucocorticoid-induced TNFR-related) was determined using an ELISA assay. Nunc Maxisorp plates were coated with 1 ug/ml human CD137-Fc recombinant protein (Acro Biosystems 41B-H5258), human GITR-Fc (R&D Systems cat no. 689-GR) human OX40-Fc (R&D Systems cat no. 3388-OX) in sodium carbonate buffer overnight at 4° C. then washed twice with PBS. Non-specific protein interactions were blocked by incubation with 1% (w/v) skimmed milk powder (Marvel®) in PBS/0.1% Tween-20 for 1 hour at room temperature. Plates were washed twice with PBS then VH or antibody control (1 ug/ml) added for 1 hour at room temperature. Following three washes with PBS/0.1% Tween-20 a 1:1000 dilution of anti His-HRP (VH detection) or anti mouse-HRP (positive control mouse monoclonal antibody detection) was added in 1% Marvel/PBS/0.1% Tween-20. The detection antibodies were allowed to bind for 1 hour at room temperature then the plates were washed twice in PBS/0.1% Tween-20 and once in PBS. The ELISA was developed using TMB substrate and the reaction was stopped by the addition of 50 ul 0.5M H₂SO₄ solution. The absorbance at 450 nm was measured using the BMG Pherastar.

[2] = target: T2, human CD137-human Fc chimeric protein (Acro Biosystems cat no. 41B-H5258) (human, UniProt Q07011 24-186); assay: BLI (Octet RED384), CD137-Fc on Protein G sensors, 1:1 model
T2 construct: Bought protein; The Octet Protein G and Biacore experiments name no catalogue number; also called human CD137Fc recombinant protein; human CD137-Fc recombinant protein; not shown: human IgG1 Fc tag
Procedure: Binding kinetics of purified VH, bivalent VH and trivalent VH molecules were measured on a ForteBio Octet RED 384 instrument. CD137-Fc tagged protein was diluted to 3 μg/ml in kinetics buffer (0.1% BSA, 0.02% Tween, 1×PBS) and coupled to Protein G biosensors (ForteBio cat no. 18-5082) via the Fc tag. VH were serially diluted (typically 1:2 dilution series starting with 50 nM, VH at the highest concentration) and binding to the CD137-Fc-coupled Protein G biosensors measured. Binding kinetics were determined from the (blank subtracted) sensor gram trace using 1:1 binding models and ForteBio Octet Data Analysis 9.0 software. Example kinetic and binding affinity data obtained is shown Table 10 (monovalent VH) and FIG. 1 (bivalent and trivalent molecules).

[3] = target: T3, human CD137 expressed on the surface of CHO cells (human, UniProt Q07011 24-255); assay: FMAT ligand inhibition, CD137 Ligand on CHO human CD137 cells
T3 construct: Also used for the Jurkat reporter cells that express human CD137 (functional rows); also called CHO human CD137 cells; CHO huCD137
T3 sequence (Q07011 24-255 limits assumed): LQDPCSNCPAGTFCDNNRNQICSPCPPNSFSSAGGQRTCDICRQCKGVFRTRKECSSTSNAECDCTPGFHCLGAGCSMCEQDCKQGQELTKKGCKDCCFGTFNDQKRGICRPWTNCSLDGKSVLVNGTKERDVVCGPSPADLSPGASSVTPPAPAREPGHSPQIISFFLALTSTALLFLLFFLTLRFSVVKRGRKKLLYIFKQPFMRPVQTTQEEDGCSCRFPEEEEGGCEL
In short: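 Read-out was FMAT fluorescence (FL2 median intensity), normalised to total binding controls after subtracting non-specific binding set with excess non-Fc-tagged competitor. Inhibition by purified Humabody VH of human CD137 ligand binding to CHO human CD137 cells was reported as % control.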

[4] = target: T4, human GITR-Fc (R&D Systems cat no. 689-GR) (human, UniProt Q9Y5U5 26-161); assay: ELISA, coated GITR-Fc
T4 construct: Bought protein; also called GITR (Glucocorticoid-induced TNFR-related); not shown: Fc tag
T4 sequence (looked up): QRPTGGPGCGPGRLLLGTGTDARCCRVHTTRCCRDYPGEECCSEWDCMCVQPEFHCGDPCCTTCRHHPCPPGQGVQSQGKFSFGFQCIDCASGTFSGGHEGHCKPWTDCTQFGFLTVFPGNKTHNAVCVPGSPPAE
Procedure: as §1

[5] = target: T2, human CD137-human Fc chimeric protein …; assay: BLI (Octet RED384), CD137-Fc amine-coupled to AR2G sensors, 1:1 model
Procedure: The kinetics of monovalent and bispecific Humabody VH were determined on a ForteBio Octet RED 384 instrument. To study the interaction with the antigens, CD137-Fc tag protein (Acro Biosystems cat no. 41B-H5258) or PSMA-his (R&D Systems cat no. 4234-ZN) was immobilised onto AR2G biosensors (ForteBio cat no. 18-5082) by amine coupling. Monovalent VH and bispecific molecules were serially diluted (typically 1:2 dilution series starting between 12-25 nM, at the highest concentration) in kinetics buffer (0.1% BSA, 0.02% Tween, 1×PBS) and binding to the immobilised proteins was studied during the association and dissociation phases. PSMA binding was measured using 180 seconds association and 600 seconds dissociation phases. CD137 binding was measured 180 seconds association and 600 seconds dissociation phases. Reference subtracted data were fitted to a 1:1 binding model using the ForteBio Octet Data Analysis software.

binding result [1] | Kd [2] [nM] | koff [2] [s⁻¹] | kon [2] [M⁻¹ s⁻¹] | IC50 [3] [nM] | binding result [4] | Kd [5] [nM] | koff [5] [s⁻¹] | kon [5] [M⁻¹ s⁻¹] | Binder
no binding (tested: 1 ug/ml) | 5.3 | 0.00616 | 1.17e+06 | 19 | no binding (tested: 1 ug/ml) |  |  |  | Humabody VH 2.8 (VHH, human single VH domain) VH: EVQLVESGGGLVKPGGSLRLSCAASGFAFSDYYMSWFRQAPGKGLEWVSHISGSGTTIDYADSVKGRFTISRDNAKNSLYLQMNSLRAEDTAVYHCAREDSRMPGTTDFDNWGQGTLVTVSSHHHHHH
no binding (tested: 1 ug/ml) |  |  |  | 2 | no binding (tested: 1 ug/ml) |  |  |  | Humabody VH 2.9 (VHH, human single VH domain) VH: EVQLVESGGGLVKPGGSLRLSCAASGFTFSDYYMTWFRQAPGKGLEWISYISGSGDTIDYAESVKGRFTISRDNAKNSLYLQMNSLRAEDTAVYHCAREDSRIAGTTDFDNWGPGTLVTVSSHHHHHH
no binding (tested: 1 ug/ml) | 0.96 | 0.00157 | 1.63e+06 | 2 | no binding (tested: 1 ug/ml) |  |  |  | Humabody VH 2.14 (VHH, human single VH domain) VH: EVQLVESGGGLVKPGGSLRLSCAASGFTFSDYYMTWFRQAPGKGLEWISYISGSGDTIDYAESVKGRFTISRDNAKNSLYLQMNSLRAEDTAVYYCAREDIRMPGTTDFDHWGQGTLVTVSSHHHHHH
no binding (tested: 1 ug/ml) | 3.2 | 0.000963 | 300000 | 1.2 | no binding (tested: 1 ug/ml) |  |  |  | Humabody VH 1.52 (VHH, human single VH domain) VH: EVQLVESGGGLVQIGGSLRLSCAASGFTFSKYWMIWVRQAPEKGLEWVANINQDGSEKYYVDSVEGRFTISRDNANNSLFLQMNSLRAEDTAVYYCARGGDDYSISHFGMDVSGQGTRVTVSSHHHHHH

Further lines, the binder ahead of its results:

Binder | binding result [1] | Kd [2] [nM] | koff [2] [s⁻¹] | kon [2] [M⁻¹ s⁻¹] | IC50 [3] [nM] | binding result [4] | Kd [5] [nM] | koff [5] [s⁻¹] | kon [5] [M⁻¹ s⁻¹]
Humabody VH 1.78 (VHH, human single VH domain) VH: QVQLVESGGGLVQPGGSLRLSCAATGFTLSNYWMNWVRQAPGKGLEWVANINQDGSERYYVDSVKGRFTISRDNAKNSLYLQMSSLRAEDTAVYFCARGGEGYGVDHYGLDVSGQGTTVTVSSHHHHHH | no binding (tested: 1 ug/ml) | 0.72 | 0.000219 | 304000 | 1.5 | no binding (tested: 1 ug/ml) |  |  | 
Humabody VH 1.11 (VHH, human single VH domain) VH: EVQLVESGGGLVQPGGSLRLSCEASGFTFSDYWMNWARQAPGKGLEWVANIKEDGSEKYYVDSVEGRFTISRDNAKNSTYLQMNSLRAEDTAVYYCARGGAGYSMSHYGMDVWGQGTTVTVSSHHHHHH | no binding (tested: 1 ug/ml) | 2.5 | 0.00148 | 596000 | 1.6 | no binding (tested: 1 ug/ml) |  |  | 
Humabody VH 1.18 (VHH, human single VH domain) VH: EVQLVESGGGLVQPGGSLRLSCAASGFTFSTHWMNWARQAPGKELEWVANINQDGSEKYYVDSVEGRFTISRDNANNSLYLQMNSLRAEDTAVYYCARGGVGYGDSHFGMDVWGLGTTVTVSSHHHHHH | no binding (tested: 1 ug/ml) | 0.12 | 0.000625 | 5.18e+06 | 1.2 | no binding (tested: 1 ug/ml) |  |  | 
Humabody VH 2.1 (VHH, human single VH domain) VH: EVQLVESGGGLVKPGGSLRVSCAASGFTFSDYYMSWFRQAPGKGLEWVSYISGSGDIIDYADSVKGRFTISRDNAKNSLYLQMNNLRAEDTAVYHCAREDSRLTGTTDFDNWGQGTLVTVSSHHHHHH | no binding (tested: 1 ug/ml) | 2.9 | 0.00388 | 1.35e+06 | 5.7 | no binding (tested: 1 ug/ml) | 6.7 | 0.0052 | 770000
Humabody VH 1.1 (VHH, human single VH domain; also called single domain antibody 1.1) VH: EVQLVESGGGLVQPGGSLRLSCAASGFTFSSHWMTWFRQAPGKGLEWVAHIKEDGSEKYYEDSVEGRFTVSRDNAKNSVYLQMNSLRAEDTAVYYCARGGDGYSDSHFGVDVWGQGTTVTVSSHHHHHH | no binding (tested: 1 ug/ml) | 0.34 | 0.00034 | 989000 | 1.1 | no binding (tested: 1 ug/ml) | 0.52 | 0.00036 | 710000
